Tests used:
[1] = parameters: species or system patients; conditions: in vivo
Protocol: A retrospective study was conducted on 59 patients treated in our institution for neuroendocrine tumors (NET) with ^177Lu-DOTATATE (Lutathera ®) between 2019 and 2021. In a standard study, patients received 4 cycles of ^177Lu-DOTATATE at the recommended activity of 7400 MBq during a 30-min intravenous perfusion. The interval between each cycle was eight weeks. The study was declared to the Health Data Hub (number: F20230102114415).
Six to nine blood samples were collected at 0.5, 1, 2, 4, 8, 16, 24, 72 and 144 h post-injection in each patient. Blood was collected in the arm contralateral to that in which ^177Lu-DOTATATE was injected. Blood samples were centrifuged at 1000xg for 10 min at ambient temperature. Radioactivity was measured in 1 ml aliquots of plasma using a WIZARD^2™ 2480-0010 Gamma Counter (Perkin Elmer, MS, USA). A calibration curve with ^177Lu-DOTATATE was established to normalize the data obtained with the gamma counter. Radioactivity-time data were expressed in MBq/L after correction for radioactive decay between the time of the sampling and the measurement according to the equation: C(t)corr=C(t)measured×e^-Ln2/T1/2,177Lu(tmeasured-t) where C(t)corr is ^177Lu-Dotatate concentration at time t corrected for radioactive decay, C(t)measured is the ^177Lu-Dotatate concentration measured at time tmeasured, T1/2,^177Lu is the half-time disintegration of ^177Lu and T0 is the time of ^177Lu-Dotatate injection.
For the blood-based method, the activity concentration was fitted by a mono-, bi- or tri- exponential curve to infinity to estimate the area under the curve (AUC) using an in-house Python program (Python 3.10, numpy and matplotlib libraries). […]
To estimate the influence of the late timepoints for the blood-based method, we estimated the absorbed dose with only the timepoints before 24 h post-injection. For the image-based method, we kept only three timepoints by deleting the last one and compared the absorbed dose to the one calculated with all the timepoints.

[2] = human, in vivo; cited from earlier work
Text: Peptide receptor radionuclide therapy (PRRT) with ^177Lu-DOTATATE or ^177Lu-oxodotreotide, a somatostatin analog radiolabeled with ^177Lu, is a recognized therapeutic option for metastatic or symptomatic patients with midgut WHO grade I-II neuroendocrine tumors. […] The standard treatment consists in four intravenous injections of 7.4 GBq of ^177Lu-DOTATATE administered every 8 weeks. This the ...

[3] = in vivo; cited from earlier work
Text: Table 1 Literature review of absorbed dose in bone marrow for ^177Lu-PRRT | column: Bone marrow absorbed dose (Gy/GBq) || Recently, the EANM dosimetry committee published its recommendations for the dosimetry of ^177Lu-labeled somatostatin-receptor and PSMA-targeting ligands. For ^177Lu-PRRT, the median value for the red marrow absorbed dose across all the studies is 50 mGy/GBq. The total-body time activity curve (TAC) is generally biphasic, as is the case for the blood TAC. The recommendation for dosimetry is to measure the activity concentration in the blood even if sequential planar or SPECT/CT whole-body imaging is also possible. || The median absorbed dose ranged from 15.3 to 63.9 mGy/GBq depending on the method used, which is coherent with the median literature value of 50 mGy/GBq (range 2 to 150 mGy/GBq) (see Table 1). With the blood-based method, the tri-exponential model gave a higher median absorbed dose than the bi-exponential model, which also gave a higher median dose than the mono-exponential model. The tri-exponential model was not always accurate and sometimes gave an infinite AUC, that is maybe due to the low number of points especially for the image-based method where we only have 4 points.

**Q.** What does the source list for `C[C@@H](O)[C@H](NC(=O)[C@@H]1CSSC[C@H](NC(=O)[C@@H](Cc2ccccc2)NC(=O)CN2CCN(CC(=O)O)CCN(CC(=O)O)CCN(CC(=O)O)CC2)C(=O)N[C@@H](Cc2ccc(O)cc2)C(=O)N[C@H](Cc2c[nH]c3ccccc23)C(=O)N[C@@H](CCCCN)C(=O)N[C@@H]([C@@H](C)O)C(=O)N1)C(=O)O` [^177Lu-DOTATATE, metal not drawn]?
**A.** Effective half-life, first phase [1]: 12 to 348 min; Effective half-life, second phase [1]: 96 to 2080 min; Median absorbed dose (bone marrow), range over methods and models [1]: 15.3-63.9 mGy/GBq; Grade 3 or 4 lymphopenia [2]: 9%; Grade 3 or 4 thrombopenia [2]: 2%; Leukemia, treated patients [2]: about 1%; Myelodysplastic syndrome (MDS), treated patients [2]: about 2%; Median value for the red marrow absorbed dose across all the studies [3]: 50 mGy/GBq; Range of literature red marrow absorbed dose [3]: 2-150 mGy/GBq
